Data on one molecule can be found in patent publication US12564623B2, “Methods and compositions for treating cancer” (The University of Chicago, priority 2017, dated 2026).

One series concerns healthy cells. As to the kind of experiment: Healthy cell viability, Calcein AM. To be noted: 50 nM, 24 hrs. The format is cell-based. Here is the method:
(§1) Human PMN'S broadly and selectively kill cancer cells. Human peripheral blood neutrophils (PMN) were isolated from healthy donors and incubated in serum-free DMEM to collect their secreted factors (PMN-media). (A-B) Human or murine cancer cells (A) or healthy cells (b) were incubated with PMN media or control serum-free DMEM (Ctrl media) for 24 hours. Cell viability was assessed by Calcein AM staining. (C) Human or murine cancer cells were treated with PMN media or Ctrl media for 6 hours. Caspase 3/7 activity was examined by a luminescence activity assay, while cell surface Annexin V staining was assessed by flow cytometry. […] (FIG. 1).
(§2) (FIG. 6A) Cancer cells or healthy cells were treated with 50 nM purified native ELANE or control DMEM media (Ctrl) media for 24 hrs, and cell viability was assessed by Calcein AM staining. (FIG. 6B) Cancer cells were treated with 50 nM ELANE or Ctrl media for 6 hrs, and apoptosis was assessed by Caspase 3/7 luminesce activity assay or cell surface Annexin V staining by flow cytometry. *, p<0.05, Student's t-test.

Another series has as its system E0771 cancer cells. As to the kind of experiment: Abscopal effect, bilateral E0771 tumors. The format is in vivo, C57BL/6 mice. Here is the method: (FIG. 19A) E0771 cancer cells were injected into left (0.5 million cells) and right (0.4 million cells) mammary fat pad of C57BL/6 mice. Once tumors on the left side reached ˜100 mm^3, ELANE (11.6 μg) or PMSF-inactivated ELANE (PMSF-ELANE) were injected intra-tumorally into the left tumor once/day for 5 days. n=10 mice/group. No action was performed on the right side of the tumor (abscopal side). Tumor volume on both sides were measured by calipers. (FIG. 19B) To eliminate the possibility that the abscopal effect was due to spillover of ELANE from the left to the right tumor, E0771 cancer cells were injected only into the left mammary fat pad of C57BL/6 mice, and mice were treated daily with ELANE (11.6 μg) or PMSF-ELANE into the right mammary fat pad. Tumor volume was measured by calipers.

For series [1], the system named is Human or murine cancer cells. The series can be described thus: Cancer cell viability and apoptosis (Calcein AM, Caspase 3/7, Annexin V). It is filed as cell-based. The note with it: 50 nM; 24 hrs viability, 6 hrs apoptosis. Here is the method: as §1, §2
The target of series [2] is T1, CD95 (Homo sapiens, UniProt P25445).
T1 sequence (P25445 26-335): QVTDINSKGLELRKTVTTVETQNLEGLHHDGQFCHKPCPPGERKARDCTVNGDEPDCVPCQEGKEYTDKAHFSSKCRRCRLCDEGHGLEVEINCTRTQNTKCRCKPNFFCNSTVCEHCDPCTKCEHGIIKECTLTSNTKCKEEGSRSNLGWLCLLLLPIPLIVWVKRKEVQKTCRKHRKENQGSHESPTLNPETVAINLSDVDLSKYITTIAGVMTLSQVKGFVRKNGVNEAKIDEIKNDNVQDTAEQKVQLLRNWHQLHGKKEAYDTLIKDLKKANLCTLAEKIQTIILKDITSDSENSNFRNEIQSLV
As to the kind of experiment: CD95 loss and immunoreactivity in ELANE-treated cancer cells. The format is cell-based. Also noted: endogenous in cells; host or cells: Mel888 melanoma cells. Here is the method:
ELANE lowers CD95 levels in cancer cells and reduced CD95 levels are associated with apoptosis. (FIG. 8A) Recombinant proteins (1 μg) corresponding to full length CD95 (FL-CD95), N-terminal domain of CD95 (amino acids 1-173; N-CD95), or C-terminal domain of CD95 (amino acids 157-320; C-CD95) were inbuated with ELANE (0.05 μg) or vehicle (Veh) for 2 hrs at 37° C. Degradation was assessed by SDS-PAGE followed by coomassie blue staining. […] (FIG. 8C) Cancer cells were treated with ELANE (50 nM) for 1 hr, fixed in 10% formalin, and stained with N- or C-terminal specific anti-CD95 antibodies (green). Hoechst 33342 solution was used for nuclear staining (blue). Images were taken under 40×.
ELANE selectively cleaves the C-terminal domain of CD95. The CD95 pathway is essential for the survival of a wide range of cancer cells, but largely dispensable for normal cell survival (Adachi et al., Nat. Genet., 1995; Karray et al., J. Immunol., 2004). CD95 function can be modulated by proteolysis (Strand et al., Oncogene, 2004). […] Degradation was assessed by SDS-PAGE followed by staining with coomassie blue. […] Mel888 cancer cells were treated with ELANE (50 nM) for various times, and CD95 degradation was assessed by western blot analysis with a C-terminal specific anti-CD95 antibody.

Series [3] has as its system MDA-MB-231, A549, MEL888, M1, 4195, E0771, LLC1, B16F10 tumors. As to the kind of experiment: Tumor growth in xenograft, PDX and syngeneic models. It is filed as in vivo, mice. To be noted: 11.6 μg intratumorally once/day for 5 days. Here is the method:
MDA-MB-231, A549, or MEL888 cells (xenograft model) were injected into athymic nude mice; M1 or 4195 tumors (TNBC PDX models) were propagated in SCID mice; and E0771, LLC1, or B16F10 cells (syngeneic models) were injected into C57BL/6 mice. Once tumors reached ˜100 mm^3, ELANE (11.6 μg), or PMSF-ELANE (11.6 μg) were delivered intratumorally once/day for 5 days. n=8-15 mice/group. Tumor volume was assessed by calipers. Kaplan-Meier curve was plotted and the logrank test (Mentel-Cox method) was used for mouse survival analysis. Day 0 refers to the first treatment day. End point of survival is defined as tumor volume >1000 mm^3. (FIG. 15)

Series [4] has as its system CD95. The series can be described thus: CD95 immunoreactivity and ELANE uptake in non-cancer cells. It is filed as cell-based. Here is the method: Non-cancer cells were treated with ELANE (50 nM) for 1 hr, fixed in 10% formalin, and stained with N- or C-terminal specific anti-CD95 antibodies. Hoechst 33342 solution was used for nuclear staining. Images were taken under 40×. […] Non-cancer cells were treated with ELANE (100 nM) in the presence or absence of a broad endocytosis inhibitor Dynasore (80 μM) for 30 mins. ELANE catalytic activity in cell lysates was assessed using a chromogenic substrate assay.

B1: neutrophil elastase (protein, listed as Homo sapiens)
chain: MTLGRRLACLFLACVLPALLLGGTALASEIVGGRRARPHAWPFMVSLQLRGGHFCGATLIAPNFVMSAAHCVANVNVRAVRVVLGAHNLSRREPTRQVFAVQRIFENGYDPVNLLNDIVILQLNGSATINANVQVAQLPAQGRRLGNGVQCLAMGWGLLGRNRGIASVLQELNVTVVTSLCRRSNVCTLVRGRQAGVCFGDSGSPLVCNGLIHGIASFVRGGCASGLYPDAFAPVAQFVNWIDSIIQRSEDNPCPHPRDPDPASRTH
notes: purified native ELANE
Consider B1, for which the healthy cell viability result with healthy cells was “does not kill normal healthy cells”. For the same molecule, the “tumor growth after injection into contralateral non-tumor bearing mammary fat pad” value in the series on E0771 cancer cells (11.6 μg daily) is on record as “does not lower tumor growth”. In addition, in the series with E0771 cancer cells (11.6 μg into left tumor once/day for 5 days), the abscopal effect entry is listed as “induces an abscopal effect”. Further, the “cancer cell killing and apoptosis” value in series [1] is “selectively kill cancer cells by inducing apoptosis”. For the same molecule, in the series with CD95 [2] (50 nM, 1 hr), the “CD95 immunoreactivity of cancer cells” value is “lose immunoreactivity to a C-terminal specific CD95 antibody, but not to an N-terminal specific CD95 antibody”. The “CD95 at the cell surface” value in the series with CD95 [2] (incubating cancer cells with ELANE) is “CD95 loss from the cell surface”. In series [3], the tumor growth result is recorded as “attenuates tumor growth in many cancer models”. Also, the “CD95 immunoreactivity of non-cancer cells” value with CD95 [4] (50 nM, 1 hr) was “loss of immunoreactivity with a C-terminal specific antibody”. Moreover, in the series on CD95 [4] (100 nM, 30 mins), the “uptake by non-cancer cells” value is “internalized by non-cancer cells”.
